US10407638B2, “Production of alpha-olefins” (TOTAL RAFFINAGE CHIMIE, priority 2015, dated 2019)

Tests used:
Type in all cases: biochemical
[1] = Reaction of purified enzymes with C14 fatty acid, analysis of decarboxylation and hydroxylation products; settings: compared with Bs168 and Aa162; FIG. 7
Description: FIG. 7: In vitro production of α-olefins by Aa162, Bs168 and Sm46-del29. Recombinantly expressed and purified enzyme (0.2 μM) was used in an in vitro assay for α-olefin biosynthesis in the presence of C14 fatty acid substrate. The conversion percentages are shown for, from left to right, C14 free fatty acid substrate, C13 α-olefin, α-hydroxy C14 fatty acid, β-hydroxy C14 fatty acid.
Recombinantly expressed and purified Bs168 and Aa162 from Example 1 and Sm46-del29 of Example 2 were reacted with C14 fatty acid and the products of decarboxylation (C13 α-olefin) and hydroxylation (α-OH—O14 fatty acid and β-OH—C14 fatty acid) reactions were analyzed.

[2] = Fatty acid decarboxylation assay with purified Sm46-del29, GC
Description: FIG. 6: In vitro conversion of free fatty acids into α-olefins by a truncated variant of Sm46: Sm46-del29. Conversion percentages of the free fatty acid substrates (A) and the corresponding α-alkene products (B) are shown.
The fatty acid decarboxylation assays containing 1.0 μM Sm46-del29, 200 μM fatty acid substrate (from C8 to C20), 220 μM H2O2 in 200 μl of storage buffer were carried out at 28° C. for 2 h. Reactions were quenched by the addition of 20 μl of 10 M HCl. Heptadecanoic acid was added as internal standard and the mixture was extracted by 200 μl ethyl acetate. Following extraction, the organic phase was collected and analyzed by gas chromatography as described below.
The GC analytical method for hydrocarbon and fatty acid samples was adapted from Guan et al. (2011 J Chromatogr A 1218:8289-8293). The analyses were performed on an Agilent 7890B gas chromatograph equipped with a capillary column HP-INNOWAX (Agilent Technologies, Santa Clara, Calif., USA; cross-linked polyethylene glycerol, i.d. 0.25 μm film thickness, 30 m by 0.25 mm). The helium flow rate was set to 1 ml per minute. The oven temperature was controlled initially at 40° C. for 4 min, then increased at the rate of 10° C. per min to 250° C., and held for 5 min. The injecting temperature was set to 280° C. with the injection volume of 1 μl under splitless injection conditions. The response factors between fatty acids and alkenes were determined by analyzing known authentic fatty acids (C10-C20), 1-alkenes (C9-C19) and 1-heptadecanoic acid standards as described in Liu et al. (2014 Biotechnol. Biofuels 7:28).

[3] = In vitro olefin biosynthesis assay with supernatant of E. coli lysates expressing the enzyme, GC/MS; settings: for fatty acid decarboxylase activity (α-olefin production): C12, C14 or C16 fatty acid substrate (1 mM), H2O2 500 μM
Description: FIG. 4: In vitro production of α-olefins by OleTJE, Bs168, Aa162 and Sm46. Genes encoding OleTJ, Bs168, Aa162 and Sm46 were recombinantly expressed in E. coli. The supernatant of the E. coli lysates was used in an in vitro assay for α-olefin biosynthesis in the presence of C12, C14 or C16 fatty acid substrate (1 mM) and H2O2 (500 μM). C11, C13 and C15 α-olefin production by the different enzymes is indicated as the area under the gas chromatographic (GC) peak.
E. coli BL21(DE3) cells (Novagen) carrying a recombinant plasmid or an empty PET28a plasmid (control) were cultured for several cycles to ensure best growth state at 37° C. in 10 mL LB medium supplemented with 50 μg/ml of kanamycin, followed by inoculation (1:100 ratio) into 50 mL fresh Terrific Broth medium containing 50 μg/ml of kanamycin, 1 mM thiamine, 10% glycerol and a rare salt solution (6750 mg/l FeCl3, 500 mg/l ZnCl2, 500 mg/l CoCl2, 500 mg/l Na2MoO4, 250 mg/l CaCl2, 465 mg/l CuSO4, and 125 mg/l H31303) at 37° C. Cells were grown at 37° C. for 3 to 4 h until the optical density at 600 nm (OD600) reached 0.6 to 0.8, at which 0.2 or 0.4 mM isopropyl-β-D-thiogalactopyranoside (IPTG) and 0.5 mM 5-aminolevulinic acid were added, followed by 18 h of cultivation at 16° C.
Then, the cell cultures were recovered by centrifugation (at 4° C.) and re-suspended in 1.5 mL 50 mM Tris buffer, pH 7.5, containing 0.1 M NaCl. The re-suspended cell cultures were disrupted by sonication and centrifuged at 13,000×g for 30 min (4° C.). The supernatant was collected and the pellet was re-suspended in 1.5 mL 50 mM Tris buffer, pH 7.5, containing 0.1 M NaCl for further analysis. An SDS gel was run to check the expression of the genes using 15 μL of supernatant or pellet solution mixed with 5 μL of 4× loading buffer (FIG. 3).
In vitro olefin biosynthesis was evaluated by adding to the supernatant a fatty acid substrate in DMSO to a final concentration of 0.2 mM (1:100 dilution) or 1 mM (1:10 dilution), and 500 μM H2O2. The reaction mixture was incubated at 28° C. for 2-3 h, or stopped using 50 μL of 10 M HCl at t=0, 15, 30, 60 and 120 min for a dynamic test. Then, C16 fatty acid was added at a final concentration of 0.2 mM (1:100 dilution) as an internal standard. 300 μL reaction mixture of each reaction condition was extracted with equal volume of ethyl acetate, and the organic phase was analyzed for hydrocarbons by gas chromatography/mass spectrometry (GC/MS). In the meanwhile, undecene of different concentrations (0, 0.05 mM, 0.1 mM, 0.2 mM and 0.5 mM) were tested to produce a standard curve.

[4] = C12, C14 or C16 fatty acid substrate, FIG. 4

B1: Sm46-del29: truncated variant of Sm46 with the N-terminal 29 amino acids deleted, SEQ ID NO:13 (protein)
chain: AKKLPKVKGLDNTVDIIKGGYTYVPGKLEEFDSKAFEVRALGGKKIAVMSGKEAAEIFYDNEKMERQGTLPKRIVNTLFGKGAIHTTAGKKHVDRKALFMSLMTDENLNYLRELTRNYWFMNTERMQSMDKVNVYNESIYMLTKIGFRWAGIIQTPEEAEQNAKDMDTMINSFVSLGSAYKGYKKAKKARKRVEDFLEKQIIDVRKGKLHPEEGTALYEFAHWEDLNDNPMDSHLCAVDLMNVVRPLAAINRFISYGVKVLIEFDQEKEKLRLENNEDYAYKFAQEVRRIFPFVPYLPGRAAVDLEYDGYKIPAGMMTALDVYGTTHDEDLWENPDQFNPNRFDNWDGSPFDLIPQGGGDFYTNHRCAGEWITVIIMEETMKYFANKIEFDVPSQDLSVKLDKLPGNVTSGTIISNVRPRVARK
modifications: Sm46-del29
- formation of hydroxy fatty acids [1]: formed less hydroxy fatty acids
- decarboxylase activity ([2]; 1.0 μM enzyme, 200 μM fatty acid, 220 μM H2O2, 28° C., 2 h, FIG. 6): had decarboxylase activity
- decarboxylation of C10 free fatty acid ([2]; C9 α-olefin not detected due to volatility): able to decarboxylate C10 free fatty acid
- substrate preference for α-olefin production ([2]; among tested fatty acid substrates C8 to C20, FIG. 6): substrate preference for C12 free fatty acid

B2: Sm46: olefin-producing enzyme from Staphilococcus massiliensis, SEQ ID NO:8 (protein, listed as Staphylococcus massiliensis)
chain: MFVDSILVLRLNLLKTGIQLEMKNGGIKVAKKLPKVKGLDNTVDIIKGGYTYVPGKLEEFDSKAFEVRALGGKKIAVMSGKEAAEIFYDNEKMERQGTLPKRIVNTLFGKGAIHTTAGKKHVDRKALFMSLMTDENLNYLRELTRNYWFMNTERMQSMDKVNVYNESIYMLTKIGFRWAGIIQTPEEAEQNAKDMDTMINSFVSLGSAYKGYKKAKKARKRVEDFLEKQIIDVRKGKLHPEEGTALYEFAHWEDLNDNPMDSHLCAVDLMNVVRPLAAINRFISYGVKVLIEFDQEKEKLRLENNEDYAYKFAQEVRRIFPFVPYLPGRAAVDLEYDGYKIPAGMMTALDVYGTTHDEDLWENPDQFNPNRFDNWDGSPFDLIPQGGGDFYTNHRCAGEWITVIIMEETMKYFANKIEFDVPSQDLSVKLDKLPGNVTSGTIISNVRPRVARK
- fatty acid decarboxylase activity (α-olefin production) ([3]; FIG. 4): fatty acid decarboxylase activity
- substrate preference ([3]; later experiments, data not shown): substrate preference for C12 fatty acid substrate

B3: OleTJE: P450 decarboxylase from Jeotgalicoccus sp. ATCC 8456, decarboxylates C12 to C20 free fatty acids to α-olefins (protein, listed as Jeotgalicoccus sp.)
chain: MATLKRDKGLDNTLKVLKQGYLYTTNQRNRLNTSVFQTKALGGKPFVVVTGKEGAEMFYNNDVVQREGMLPKRIVNTLFGKGAIHTVDGKKHVDRKALFMSLMTEGNLNYVRELTRTLWHANTQRMESMDEVNIYRESIVLLTKVGTRWAGVQAPPEDIERIATDMDIMIDSFRALGGAFKGYKASKEARRRVEDWLEEQIIETRKGNIHPPEGTALYEFAHWEDYLGNPMDSRTCAIDLMNTFRPLIAINRFVSFGLHAMNENPITREKIKSEPDYAYKFAQEVRRYYPFVPFLPGKAKVDIDFQGVTIPAGVGLALDVYGTTHDESLWDDPNEFRPERFETWDGSPFDLIPQGGGDYWTNHRCAGEWITVIIMEETMKYFAEKITYDVPEQDLEVDLNSIPGYVKSGFVIKNVREVVDRT
- fatty acid decarboxylase activity (α-olefin production) ([3]; FIG. 4): fatty acid decarboxylase activity

B4: Bs168: P450BSβ fatty acid hydroxylase from Bacillus subtilis subsp. subtilis str. 168, SEQ ID NO:4 (protein, listed as Bacillus subtilis)
chain: MNEQIPHDKSLDNSLTLLKEGYLFIKNRTERYNSDLFQARLLGKNFICMTGAEAAKVFYDTDRFQRQNALPKRVQKSLFGVNAIQGMDGSAHIHRKMLFLSLMTPPHQKRLAELMTEEWKAAVTRWEKADEVVLFEEAKEILCRVACYWAGVPLKETEVKERADDFIDMVDAFGAVGPRHWKGRRARPRAEEWIEVMIEDARAGLLKTTSGTALHEMAFHTQEDGSQLDSRMAAIELINVLRPIVAISYFLVFSALALHEHPKYKEWLRSGNSREREMFVQEVRRYYPFGPFLGALVKKDFVWNNCEFKKGTSVLLDLYGTNHDPRLWDHPDEFRPERFAEREENLFDMIPQGGGHAEKGHRCPGEGITIEVMKASLDFLVHQIEYDVPEQSLHYSLARMPSLPESGFVMSGIRRKS
- fatty acid decarboxylase activity (α-olefin production) ([3]; FIG. 4): fatty acid decarboxylase activity
- substrate preference [3, 4]: preference for C12 fatty acid substrate

B5: Aa162: decarboxylase (olefin-producing enzyme) from Alicyclobacillus acidocaldarius, SEQ ID NO:6 (protein, listed as Alicyclobacillus acidocaldarius)
chain: MNQCIPRDRTFDSSLALIKEGYLFIKNRVDQYQSDIFEARLLLENVVCMHGAEAAKLFYNTELFQRQGALPKRVQKTLFGENAIQTLDGTAHLHRKQLFLSLLTPDQEKSLATLATTQWRECAKVWENADRVVLFEEAKRMLCRIACQWTGVPLDESEVSKRADDFGAMVDAFGAVGPRHWKGRRARARAEAWLRQMIDEIRIGLRSVDEHTPLHVVAFWRDVNGNLLDAQMVAIELINLLRPIVAISTFITFSALALHEHPTWRDRLKARNEADIEMFVQEVRRYYPFAPFLGARVKKDFVWRGYEFKRGTLVLLDVYGTHHDARLWDSPNEFRPERFMRKTVGPFDLIPQGGGDSHTGHRCPGEGATIEIMKASVDFLVNQIDFEVPAQDLSYRLDVMPTLPKSGFVLTHVHRKFIASPTIATPNGSEALPSEV
- fatty acid decarboxylase activity (α-olefin production) ([3]; FIG. 4): fatty acid decarboxylase activity
- substrate preference [3, 4]: preference for C12 fatty acid substrate
